Test results taken from US20100080799.

Tests used:
[1] = biological target: recombinant H2A.X (WT), N-terminal 6xHis tag
[2] = biological target: recombinant H2A.X Y142F, N-terminal 6xHis tag

Protein | kinase activity (in vitro kinase assay) [1] | further results
co-expressed N-motif and C-motif of the WSTF kinase domain (protein) chain 1: MAPLLGRKPFPLVKPLPGEEPLFTIPHTQEAFRTREEYEARLERYSERIWTCKSTGSSQLTHKEAWEEEQEVAELLKEEFPAWYEKLVLEMVHHNTASLEKLVDTAWLEIMTKYAVGEECDFEVGKEKMLKVKIVKIHPLEKVDEEATEKKSDGACDSPSSDKENSSQIAQDHQKKETVVKEDEGRRESINDRARRSPRKLPTSL chain 2: GERKWAPPKFLPHKYDVKLQNEDKIISNVPADSLIRTERPPNKEIVRYFIRHNALRAGTGENAPWVVEDELVKKYSLPSKFSDFLLDPYKYMTLNPSTKRKNTGSPDRKPSKKSKTDNSSLSSPLNPKLWCHVHLKKS | The co-expressed N-motif and C-motif had significant kinase activity towards H2A.X | 
recombinant WSTF 1-359 C338A point mutant (protein) MAPLLGRKPFPLVKPLPGEEPLFTIPHTQEAFRTREEYEARLERYSERIWTCKSTGSSQLTHKEAWEEEQEVAELLKEEFPAWYEKLVLEMVHHNTASLEKLVDTAWLEIMTKYAVGEECDFEVGKEKMLKVKIVKIHPLEKVDEEATEKKSDGACDSPSSDKENSSQIAQDHQKKETVVKEDEGRRESINDRARRSPRKLPTSLKKGERKWAPPKFLPHKYDVKLQNEDKIISNVPADSLIRTERPPNKEIVRYFIRHNALRAGTGENAPWVVEDELVKKYSLPSKFSDFLLDPYKYMTLNPSTKRKNTGSPDRKPSKKSKTDNSSLSSPLNPKLWAHVHLKKSLSGSPLKVKNSKNS | the activity of a point mutant at C338 (C338A) was greatly diminished (<50 fold, FIG. 3F) | 
recombinant WSTF 1-340 construct (protein) MAPLLGRKPFPLVKPLPGEEPLFTIPHTQEAFRTREEYEARLERYSERIWTCKSTGSSQLTHKEAWEEEQEVAELLKEEFPAWYEKLVLEMVHHNTASLEKLVDTAWLEIMTKYAVGEECDFEVGKEKMLKVKIVKIHPLEKVDEEATEKKSDGACDSPSSDKENSSQIAQDHQKKETVVKEDEGRRESINDRARRSPRKLPTSLKKGERKWAPPKFLPHKYDVKLQNEDKIISNVPADSLIRTERPPNKEIVRYFIRHNALRAGTGENAPWVVEDELVKKYSLPSKFSDFLLDPYKYMTLNPSTKRKNTGSPDRKPSKKSKTDNSSLSSPLNPKLWCHV | the activity of the 1-340 amino acid construct was much reduced (<50 fold) in comparison to the other constructs | 
recombinant WSTF 1-345 construct (protein) MAPLLGRKPFPLVKPLPGEEPLFTIPHTQEAFRTREEYEARLERYSERIWTCKSTGSSQLTHKEAWEEEQEVAELLKEEFPAWYEKLVLEMVHHNTASLEKLVDTAWLEIMTKYAVGEECDFEVGKEKMLKVKIVKIHPLEKVDEEATEKKSDGACDSPSSDKENSSQIAQDHQKKETVVKEDEGRRESINDRARRSPRKLPTSLKKGERKWAPPKFLPHKYDVKLQNEDKIISNVPADSLIRTERPPNKEIVRYFIRHNALRAGTGENAPWVVEDELVKKYSLPSKFSDFLLDPYKYMTLNPSTKRKNTGSPDRKPSKKSKTDNSSLSSPLNPKLWCHVHLKKS | the 1-345 amino acid construct of WSTF had much more potent kinase activity (>50 fold) than the 1-340 construct | in vitro kinase assay [2]: its activity towards a Y142F mutant was much reduced
recombinant full length human WSTF (Flag-epitope-tagged at C terminus) (protein) MAPLLGRKPFPLVKPLPGEEPLFTIPHTQEAFRTREEYEARLERYSERIWTCKSTGSSQLTHKEAWEEEQEVAELLKEEFPAWYEKLVLEMVHHNTASLEKLVDTAWLEIMTKYAVGEECDFEVGKEKMLKVKIVKIHPLEKVDEEATEKKSDGACDSPSSDKENSSQIAQDHQKKETVVKEDEGRRESINDRARRSPRKLPTSLKKGERKWAPPKFLPHKYDVKLQNEDKIISNVPADSLIRTERPPNKEIVRYFIRHNALRAGTGENAPWVVEDELVKKYSLPSKFSDFLLDPYKYMTLNPSTKRKNTGSPDRKPSKKSKTDNSSLSSPLNPKLWCHVHLKKSLSGSPLKVKNSKNSKSPEEHLEEMMKMMSPNKLHTNFHIPKKGPPAKKPGKHSDKPLKAKGRSKGILNGQKSTGNSKSPKKGLKTPKTKMKQMTLLDMAKGTQKMTRAPRNSGGTPRTSSKPHKHLPPAALHLIAYYKENKDREDKRSALSCVISKTARLLSSEDRARLPEELRSLVQKRYELLEHKKRWASMSEEQRKEYLKKKREELKKKLKEKAKERREKEMLERLEKQKRYEDQELTGKNLPAFRLVDTPEGLPNTLFGDVAMVVEFLSCYSGLLLPDAQYPITAVSLMEALSADKGGFLYLNRVLVILLQTLLQDEIAEDYGELGMKLSEIPLTLHSVSELVRLCLRRSDVQEESEGSDTDDNKDSAAFEDNEVQDEFLEKLETSEFFELTSEEKLQILTALCHRILMTYSVQDHMETRQQMSAELWKERLAVLKEENDKKRAEKQKRKEMEAKNKENGKVENGLGKTDRKKEIVKFEPQVDTEAEDMISAVKSRRLLAIQAKKEREIQEREMKVKLERQAEEERIRKHKAAAEKAFQEGIAKAKLVMRRTPIGTDRNHNRYWLFSDEVPGLFIEKGWVHDSIDYRFNHHCKDHTVSGDEDYCPRSKKANLGKNASMNTQHGTATEVAVETTTPKQGQNLWFLCDSQKELDELLNCLHPQGIRESQLKERLEKRYQDIIHSIHLARKPNLGLKSCDGNQELLNFLRSDLIEVATRLQKGGLGYVEETSEFEARVISLEKLKDFGECVIALQASVIKKFLQGFMAPKQKRRKLQSEDSAKTEEVDEEKKMVEEAKVASALEKWKTAIREAQTFSRMHVLLGMLDACIKWDMSAENARCKVCRKKGEDDKLILCDECNKAFHLFCLRPALYEVPDGEWQCPACQPATARRNSRGRNYTEESASEDSEDDESDEEEEEEEEEEEEEDYEVAGLRLRPRKTIRGKHSVIPPAARSGRRPGKKPHSTRRSQPKAPPVDDAEVDELVLQTKRSSRRQSLELQKCEEILHKIVKYRFSWPFREPVTRDEAEDYYDVITHPMDFQTVQNKCSCGSYRSVQEFLTDMKQVFTNAEVYNCRGSHVLSCMVKTEQCLVALLHKHLPGHPYVRRKRKKFPDRLAEDEGDSEPEAVGQSRGRRQKK |  | in vitro kinase assay [1]: Full length recombinant WSTF proteins isolated from insect cells phosphorylated free H2A.X protein in the presence of Mn^2+; in vitro kinase assay (32P autoradiography) [1]: The recombinant full length WSTF protein phosphorylated H2A.X-containing nucleosomes; in vitro kinase assay (32P autoradiography) [2]: WSTF phosphorylated the WT but not Y142F H2A.X
